Data on 5 molecules can be found in article PMC12775136, “Mechanistic insights into recruitment and regulation of the RNA helicase UPF1 in replication-dependent histone mRNA decay”.

What is called Kd is the equilibrium constant for the complex coming apart.

The target of one data set is SLBPfl (human, UniProt Q14493 1-270). Nature of the data set: fluorescence anisotropy; 0.5 mM EDTA; Fluorescence anisotropy: 20 mM HEPES pH 7.5, 100 mM NaCl, 0.5 mM EDTA, 100 ug/ml BSA; 30 min at room temperature, read at 25 C; one-site fit with Hill slope, n=3. Particulars: protein: recombinant, tags: 6xHis-TEV (N-terminal), label: 5' 6-FAM.
In data set [1] the target is T1, 3'hExofl (ERI1) (human, UniProt Q8IV48 1-349).
T1 sequence: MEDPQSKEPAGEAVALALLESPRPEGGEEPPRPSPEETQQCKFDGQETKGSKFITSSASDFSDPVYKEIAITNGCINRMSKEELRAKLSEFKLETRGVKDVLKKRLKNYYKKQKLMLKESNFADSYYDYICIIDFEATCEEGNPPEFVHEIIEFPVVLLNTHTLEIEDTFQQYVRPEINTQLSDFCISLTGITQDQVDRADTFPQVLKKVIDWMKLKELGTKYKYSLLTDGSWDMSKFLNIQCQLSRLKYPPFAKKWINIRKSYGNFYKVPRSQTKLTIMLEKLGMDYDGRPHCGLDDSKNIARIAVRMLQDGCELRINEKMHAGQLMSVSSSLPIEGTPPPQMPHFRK
Nature of the data set: fluorescence anisotropy; 0.5 mM EDTA, no Mg2+; Kd shown only in figure; Fluorescence anisotropy: 20 mM HEPES pH 7.5, 100 mM NaCl, 0.5 mM EDTA, 100 ug/ml BSA; 30 min at room temperature, read at 25 C; one-site fit with Hill slope, n=3. Conditions: protein: recombinant, tags: 6xHis, HRV-3C site (N-terminal), label: 5' 6-FAM, hairpin.

The target in data set [2] is T2, UPF1-Hel;SLBP-N (human;human, UniProt Q92900-2;Q14493 295-914;1-198, |). Nature of the data set: analytical SEC; stable UPF1-SLBP complex only with SL26; Fluorescence anisotropy: 20 mM HEPES pH 7.5, 100 mM NaCl, 0.5 mM EDTA, 100 ug/ml BSA; 30 min at room temperature, read at 25 C; one-site fit with Hill slope, n=3. Conditions: protein: recombinant;recombinant; tags: 6xHis;6xHis-TEV; copies: 1;1; hairpin, 6 bp stem, 4 nt loop. Background: In fluorescence polarisation assays a small probe gives low polarisation when free and higher when bound to something large.

The next data set addresses T3, UPF1-CHh (human, UniProt Q92900-2 115-914).
T3 sequence: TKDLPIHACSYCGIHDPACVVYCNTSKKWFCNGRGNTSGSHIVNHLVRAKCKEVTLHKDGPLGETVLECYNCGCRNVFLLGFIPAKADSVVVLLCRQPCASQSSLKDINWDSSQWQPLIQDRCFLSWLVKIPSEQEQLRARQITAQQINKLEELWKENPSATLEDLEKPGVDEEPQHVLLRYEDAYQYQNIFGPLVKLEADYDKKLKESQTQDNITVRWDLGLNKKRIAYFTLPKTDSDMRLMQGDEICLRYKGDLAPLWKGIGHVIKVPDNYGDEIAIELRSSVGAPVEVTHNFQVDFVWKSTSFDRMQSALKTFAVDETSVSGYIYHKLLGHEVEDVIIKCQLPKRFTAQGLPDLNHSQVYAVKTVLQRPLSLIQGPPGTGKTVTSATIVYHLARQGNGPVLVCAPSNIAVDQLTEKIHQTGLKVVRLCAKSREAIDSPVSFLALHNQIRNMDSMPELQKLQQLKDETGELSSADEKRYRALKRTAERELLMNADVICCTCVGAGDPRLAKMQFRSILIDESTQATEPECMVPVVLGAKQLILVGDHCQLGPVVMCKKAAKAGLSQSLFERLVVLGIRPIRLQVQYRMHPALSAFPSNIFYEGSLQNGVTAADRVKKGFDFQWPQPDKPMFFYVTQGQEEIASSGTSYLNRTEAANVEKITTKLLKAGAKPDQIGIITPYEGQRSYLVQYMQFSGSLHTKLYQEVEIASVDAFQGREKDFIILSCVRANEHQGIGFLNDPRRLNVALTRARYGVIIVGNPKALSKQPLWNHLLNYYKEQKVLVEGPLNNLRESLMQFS
Nature of the data set: cryoEM structure (3.6 A); no ATP; Zn2+; Fluorescence anisotropy: 20 mM HEPES pH 7.5, 100 mM NaCl, 0.5 mM EDTA, 100 ug/ml BSA; 30 min at room temperature, read at 25 C; one-site fit with Hill slope, n=3. Particulars: protein: recombinant; tags: 6xHis; hairpin with 5' single-stranded U12 extension.

Data set [3] deals with T2, UPF1-Hel;SLBP-N. Nature of the data set: preparative SEC; ternary complex reconstituted for crosslinking MS; Fluorescence anisotropy: 20 mM HEPES pH 7.5, 100 mM NaCl, 0.5 mM EDTA, 100 ug/ml BSA; 30 min at room temperature, read at 25 C; one-site fit with Hill slope, n=3. Conditions: protein: recombinant;recombinant; tags: 6xHis;6xHis-TEV; copies: 1;1; hairpin with 5' single-stranded U12 extension.

Data set [4] deals with T1, 3'hExofl (ERI1). Kind of data set: fluorescence anisotropy; 0.5 mM EDTA, no Mg2+; affinity comparable to SL26 and SL24; Kd shown only in figure; Fluorescence anisotropy: 20 mM HEPES pH 7.5, 100 mM NaCl, 0.5 mM EDTA, 100 ug/ml BSA; 30 min at room temperature, read at 25 C; one-site fit with Hill slope, n=3. Conditions: protein: recombinant; tags: 6xHis, HRV-3C site (N-terminal); label: 5' 6-FAM; partial hairpin; 3' arm lacks last 2 stem nt.

B1: 6-FAM-SL24 (structured_RNA)
RNA: CCAAAGGCUCUUUUCAGAGCCACU
Turning to B1, the Kd with SLBPfl (hairpin, intact 6 bp stem) was roughly 7 nM. In the data set with 3'hExofl (ERI1) [1] (intact 6 bp stem), the binding result is recorded as “binds”.

B2: SL26 RNA (SEC) (structured_RNA)
RNA: CCAAAGGCUCUUUUCAGAGCCACCCA
For B2, the binding result with UPF1-Hel;SLBP-N [2] was “binds”.

B3: U-SL (12U-26SL) (structured_RNA)
RNA: UUUUUUUUUUUUCCAAAGGCUCUUUUCAGAGCCACCCA
As to B3, the binding result with UPF1-CHh and in the data set with UPF1-Hel;SLBP-N [3] was “binds” each time.

B4: 6-FAM-SL19 (structured_RNA)
RNA: CCAAAGGCUCUUUUCAGAG
Take B4: the Kd with SLBPfl (partial hairpin, 3' arm lacks last 2 stem nt) was roughly 500 nM. The binding result with 3'hExofl (ERI1) [4] is “binds”.

B5: 6-FAM-SL26 (structured_RNA)
RNA: CCAAAGGCUCUUUUCAGAGCCACCCA
Regarding B5, the Kd with SLBPfl (hairpin, 6 bp stem, 4 nt loop) was roughly 6 nM. Moreover, in the data set with 3'hExofl (ERI1) [1] (6 bp stem, 4 nt loop), the binding result is reported as “binds”.
